Columns and labels:
HeLa Kyoto [1] = assay: solubility in G1/S (NP-40 vs SDS abundance) (log2 ratio); higher = more soluble; settings: cell cycle stage: G1/S
HeLa Kyoto [2] = assay: thermal stability score vs G1/S (z-score of summed log2 fold changes over temperatures); higher = more thermally stable than in G1/S
HeLa Kyoto [3] = assay: solubility change mitosis vs G1/S (difference of NP-40 vs SDS log2 ratios) (log2 ratio difference); higher = more soluble in mitosis
HeLa Kyoto [4] = assay: melting temperature (median over replicates), in situ; higher = more thermally stable
[5] = cell cycle stage: early G1 (4.5 h after nocodazole release)
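Wherever melting temperature (median over replicates), in situ is given: HeLa Kyoto cells synchronized by double thymidine or nocodazole block, proteins quantified by TMT10plex mass spectrometry, three independent biological replicates.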
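Wherever solubility change mitosis vs G1/S (difference of NP-40 vs SDS log2 ratios) is given: synchronized HeLa Kyoto cells (double thymidine block for G1/S, nocodazole release for mitosis), protein amounts in NP-40 versus SDS lysates quantified by mass spectrometry, three biological replicates.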
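Wherever solubility in G1/S (NP-40 vs SDS abundance) is given: HeLa Kyoto cells arrested at G1/S by double thymidine block, proteins quantified by TMT10plex mass spectrometry in mild NP-40 versus SDS extracts, three biological replicates.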
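Wherever thermal stability score vs G1/S (z-score of summed log2 fold changes over temperatures) is given: synchronized HeLa Kyoto cells, proteins quantified by TMT10plex mass spectrometry, three biological replicates, mitosis taken 0.5 h after nocodazole release, G1/S directly after double thymidine block.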

Sequence | solubility in G1/S (log2) (HeLa Kyoto [1]) | thermal stability score (HeLa Kyoto [2]; [5]) | thermal stability score (HeLa Kyoto [2]; cell cycle stage: mitosis) | solubility change mitosis (log2) (HeLa Kyoto [3]) | melting temperature (HeLa Kyoto [4]; cell cycle stage: G1/S) | melting temperature (HeLa Kyoto [4]; cell cycle stage: mitosis)
MREYKLVVLGSGGVGKSALTVQFVQGIFVEKYDPTIEDSYRKQVEVDCQQCMLEILDTAGTEQFTAMRDLYMKNGQGFALVYSITAQSTFNDLQDLREQILRVKDTEDVPMILVGNKCDLEDERVVGKEQGQNLARQWCNCAFLESSAKSKINVNEIFYDLVRQINRKTPVEKKKPKKKSCLLL [RAP1A] | 0.0631 | 1.29 | -0.46 | -0.0963 | 58.5 °C | 57.6 °C
MRLGSGTFATCCVAIEVLGIAVFLRGFFPAPVRSSARAEHGAEPPAPEPSAGASSNWTTLPPPLFSKVVIVLIDALRDDFVFGSKGVKFMPYTTYLVEKGASHSFVAEAKPPTVTMPRIKALMTGSLPGFVDVIRNLNSPALLEDSVIRQAKAAGKRIVFYGDETWVKLFPKHFVEYDGTTSFFVSDYTEVDNNVTRHLDKVLKRGDWDILILHYLGLDHIGHISGPNSPLIGQKLSEMDSVLMKIHTSLQSKERETPLPNLLVLCGDHGMSETGSHGASSTEEVNTPLILISSAFERKPGDIRHPKHVQQTDVAATLAIALGLPIPKDSVGSLLFPVVEGRPMREQLRFLHLNTVQLSKLLQENVPSYEKDPGFEQFKMSERLHGNWIRLYLEEKHSEVLFNLGSKVLRQYLDALKTLSLSLSAQVAQYDIYSMMVGTVVVLEVLTLLLLSVPQALRRKAELEVPLSSPGFSLLFYLVILVLSAVHVIVCTSAESSCYFCGLSWLAAGGVMVLASALLCVIVSVLTNVLVGGNTPRKNPMHPSSRWSELDLLILLGTAGHVLSLGASSFVEEEHQTWYFLVNTLCLALSQETYRNYFLGDDGEPPCGLCVEQGHDGATAAWQDGPGCDVLERDKGHGSPSTSEVLRGREKWMVLASPWLILACCRLLRSLNQTGVQWAHRPDLGHWLTSSDHKAELSVLAALSLLVVFVLVQRGCSPVSKAALALGLLGVYCYRAAIGSVRFPWRPDSKDISKGIIEARFVYVFVLGILFTGTKDLLKSQVIAADFKLKTVGLWEIYSGLVLLAALLFRPHNLPVLAFSLLIQTLMTKFIWKPLRHDAAEITVMHYWFGQAFFYFQGNSNNIATVDISAGFVGLDTYVEIPAVLLTAFGTYAGPVLWASHLVHFLSSETRSGSALSHACFCYALICSIPVFTYIVLVTSLRYHLFIWSVFSPKLLYEGMHLLITAAVCVFFTAMDQTRLTQS [PIGG] | -0.239 | 0.623 | -0.407 | 0.00219 | 54.1 °C | 53.8 °C
MRLLPLAPGRLRRGSPRHLPSCSPALLLLVLGGCLGVFGVAAGTRRPNVVLLLTDDQDEVLGGMTPLKKTKALIGEMGMTFSSAYVPSALCCPSRASILTGKYPHNHHVVNNTLEGNCSSKSWQKIQEPNTFPAILRSMCGYQTFFAGKYLNEYGAPDAGGLEHVPLGWSYWYALEKNSKYYNYTLSINGKARKHGENYSVDYLTDVLANVSLDFLDYKSNFEPFFMMIATPAPHSPWTAAPQYQKAFQNVFAPRNKNFNIHGTNKHWLIRQAKTPMTNSSIQFLDNAFRKRWQTLLSVDDLVEKLVKRLEFTGELNNTYIFYTSDNGYHTGQFSLPIDKRQLYEFDIKVPLLVRGPGIKPNQTSKMLVANIDLGPTILDIAGYDLNKTQMDGMSLLPILRGASNLTWRSDVLVEYQGEGRNVTDPTCPSLSPGVSQCFPDCVCEDAYNNTYACVRTMSALWNLQYCEFDDQEVFVEVYNLTADPDQITNIAKTIDPELLGKMNYRLMMLQSCSGPTCRTPGVFDPGYRFDPRLMFSNRGSVRTRRFSKHLL [GNS] | 0.471 | -1.62 | -1.58 | 0.0867 | 57.1 °C | 57.6 °C
MRLPDLRPWTSLLLVDAALLWLLQGPLGTLLPQGLPGLWLEGTLRLGGLWGLLKLRGLLGFVGTLLLPLCLATPLTVSLRALVAGASRAPPARVASAPWSWLLVGYGAAGLSWSLWAVLSPPGAQEKEQDQVNNKVLMWRLLKLSRPDLPLLVAAFFFLVLAVLGETLIPHYSGRVIDILGGDFDPHAFASAIFFMCLFSFGSSLSAGCRGGCFTYTMSRINLRIREQLFSSLLRQDLGFFQETKTGELNSRLSSDTTLMSNWLPLNANVLLRSLVKVVGLYGFMLSISPRLTLLSLLHMPFTIAAEKVYNTRHQEVLREIQDAVARAGQVVREAVGGLQTVRSFGAEEHEVCRYKEALEQCRQLYWRRDLERALYLLVRRVLHLGVQMLMLSCGLQQMQDGELTQGSLLSFMIYQESVGSYVQTLVYIYGDMLSNVGAAEKVFSYMDRQPNLPSPGTLAPTTLQGVVKFQDVSFAYPNRPDRPVLKGLTFTLRPGEVTALVGPNGSGKSTVAALLQNLYQPTGGQVLLDEKPISQYEHCYLHSQVVSVGQEPVLFSGSVRNNIAYGLQSCEDDKVMAAAQAAHADDFIQEMEHGIYTDVGEKGSQLAAGQKQRLAIARALVRDPRVLILDEATSALDVQCEQALQDWNSRGDRTVLVIAHRLQTVQRAHQILVLQEGKLQKLAQL [TAP2] | -0.259 | 0.266 | 0.39 | -0.195 | 49.8 °C | 50.4 °C
MRLPRRAALGLLPLLLLLPPAPEAAKKPTPCHRCRGLVDKFNQGMVDTAKKNFGGGNTAWEEKTLSKYESSEIRLLEILEGLCESSDFECNQMLEAQEEHLEAWWLQLKSEYPDLFEWFCVKTLKVCCSPGTYGPDCLACQGGSQRPCSGNGHCSGDGSRQGDGSCRCHMGYQGPLCTDCMDGYFSSLRNETHSICTACDESCKTCSGLTNRDCGECEVGWVLDEGACVDVDECAAEPPPCSAAQFCKNANGSYTCEECDSSCVGCTGEGPGNCKECISGYAREHGQCADVDECSLAEKTCVRKNENCYNTPGSYVCVCPDGFEETEDACVPPAEAEATEGESPTQLPSREDL [CRELD2] | 0.092 | -5.44 | -1.73 | -0.0918 | 57.2 °C | 59.6 °C
